Test results reported in patent US20100297726A1 (AMANO ENZYME, published 2010).

T1: mature transglutaminase (Streptomyces mobaraensis strain No. 140226) (Streptomyces mobaraensis, UniProt P81453 77-407)
T1 construct: Natural enzyme from the culture solution; also called mature TGase; M-TGase
T1 sequence: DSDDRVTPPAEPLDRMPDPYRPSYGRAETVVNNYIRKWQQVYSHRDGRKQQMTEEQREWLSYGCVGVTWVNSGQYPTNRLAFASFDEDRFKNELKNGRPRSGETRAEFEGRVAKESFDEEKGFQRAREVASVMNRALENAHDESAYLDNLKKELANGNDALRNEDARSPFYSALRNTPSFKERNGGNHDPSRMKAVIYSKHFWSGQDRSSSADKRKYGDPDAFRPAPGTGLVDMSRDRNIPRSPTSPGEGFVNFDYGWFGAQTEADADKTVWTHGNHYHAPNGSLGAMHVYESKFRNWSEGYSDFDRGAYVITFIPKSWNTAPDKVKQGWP


The binders below were run against T1, mature transglutaminase (Streptomyces …) (assay: gel filtration (Sephacryl S-100), elution patterns with and without SDS).
Experimental: On the other hand, ammonium sulfate was added to the recovered supernatant until the concentration of saturated solution was achieved, and precipitates were recovered. The recovered precipitates were dissolved in 20 mM phosphate buffer solution (KPB; pH 7.2), and then dialyzed against the same buffer solution. Next, ammonium sulfate was added to the dialysate so that 1.7 M ammonium sulfate was obtained, which was subjected to Phenyl-Sepharose 6 Fast Flow equilibrated with 20 mM phosphate buffer solution (KPB; pH 7.2) containing 1.7 M ammonium sulfate, washed with 1.7 M ammonium sulfate, and eluted with 1.0 M ammonium sulfate. Thus, the target stabilized TGase (P-TGase) was eluted in the eluted fraction. The specific activity of the thus obtained P-TGase (u/Abs 280 nm) was 7.9. The elution patterns of gel filtration (Sephacryl S-100) was compared between the case in which SDS (sodium dodecyl sulfate) was added and the case in which SDS was not added.

Row | Binder | binding result
1 | DNGAGEETKSYAETYRLTADDVANINALNESAPAAS (Recovered from P-TGase of Streptomyces mobaraensis strain No. 140226 after SDS treatment and gel filtration) [pro-sequence peptide of transglutaminase (2) DNGAGEETKSYAETYRLTADDVANINALNESAPAAS] | binds
2 | DNGAGEETKSYAETYRLTADDVANINALNESAPAASS (Recovered from P-TGase of Streptomyces mobaraensis strain No. 140226 after SDS treatment and gel filtration) [pro-sequence peptide of transglutaminase (3) DNGAGEETKSYAETYRLTADDVANINALNESAPAASS] | binds
3 | DNGAGEETKSYAETYRLTADDVANINALNESAPAA (Recovered from P-TGase of Streptomyces mobaraensis strain No. 140226 after SDS treatment and gel filtration; One of three peptide species found in the P-TGase preparation) [pro-sequence peptide of transglutaminase (1) DNGAGEETKSYAETYRLTADDVANINALNESAPAA] | binds
